Experimental data: the supplement of paper PMC9428881
± gives the standard error.

Test: background-corrected fluorescence of 3'-dye-labeled ssDNA relative to brightest sequence (3'-GCGCG) (fraction); higher = brighter dye fluorescence (less quenching)
Summary of the method: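 Arrays of single-stranded DNA, with a 3' Cy3 or Cy5 dye beside each of 1024 permuted pentamers, were built on glass slides through light-directed phosphoramidite synthesis. They were washed for 2 h at r.t. in acetonitrile and scanned at 532 or 635 nm, once before and once after overnight ethylenediamine/ethanol deprotection. Fluorescence is reported after subtracting unlabeled-oligo background and normalizing to the brightest sequence. Averages cover 10 features per array and at least 3 syntheses.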

| Sequence | background-corrected fluorescence (dye: Cy3 (3' terminal)) | background-corrected fluorescence (dye: Cy5 (3' terminal)) |
| --- | --- | --- |
| TTTTTTGCTGCGCATCATGATTTTTTTTTTTTTTTAATGC [CGTAA] | 0.515 ± 0.016 | 0.4 ± 0.035 |
| TTTTTTGCTGCGCATCATGCTTTTTTTTTTTTTTTAATGA [AGTAA] | 0.634 ± 0.032 | 0.524 ± 0.03 |
| TTTTTTGCTGCGCATGAGCATTTTTTTTTTTTTTTAATCT [TCTAA] | 0.483 ± 0.036 | 0.338 ± 0.02 |
| TTTTTTGCTGCGCATGATCATTTTTTTTTTTTTTTAATCG [GCTAA] | 0.504 ± 0.0074 | 0.399 ± 0.026 |
| TTTTTTGCTGCGCATGATGATTTTTTTTTTTTTTTAATCC [CCTAA] | 0.376 ± 0.013 | 0.29 ± 0.018 |
| TTTTTTGCTGCGCATGATGCTTTTTTTTTTTTTTTAATCA [ACTAA] | 0.489 ± 0.025 | 0.382 ± 0.028 |
| TTTTTTGCTGCGCATGCGCATTTTTTTTTTTTTTTAATAT [TATAA] | 0.54 ± 0.022 | 0.413 ± 0.036 |
| TTTTTTGCTGCGCATGCTCATTTTTTTTTTTTTTTAATAG [GATAA] | 0.535 ± 0.0083 | 0.408 ± 0.017 |
| TTTTTTGCTGCGCATGCTGATTTTTTTTTTTTTTTAATAC [CATAA] | 0.453 ± 0.011 | 0.317 ± 0.019 |
| TTTTTTGCTGCGCATGCTGCTTTTTTTTTTTTTTTAATAA | 0.578 ± 0.031 | 0.446 ± 0.022 |
| TTTTTTGCTGCTCAGCAGCATTTTTTTTTTTTTTTAAGTT [TTGAA] | 0.609 ± 0.021 | 0.433 ± 0.024 |
| TTTTTTGCTGCTCAGCATCATTTTTTTTTTTTTTTAAGTG [GTGAA] | 0.587 ± 0.027 | 0.457 ± 0.042 |
| TTTTTTGCTGCTCAGCATGATTTTTTTTTTTTTTTAAGTC [CTGAA] | 0.438 ± 0.029 | 0.349 ± 0.015 |
| TTTTTTGCTGCTCAGCATGCTTTTTTTTTTTTTTTAAGTA [ATGAA] | 0.591 ± 0.019 | 0.493 ± 0.074 |
| TTTTTTGCTGCTCATCAGCATTTTTTTTTTTTTTTAAGGT [TGGAA] | 0.658 ± 0.016 | 0.585 ± 0.052 |
| TTTTTTGCTGCTCATCATCATTTTTTTTTTTTTTTAAGGG [GGGAA] | 0.649 ± 0.021 | 0.558 ± 0.029 |
| TTTTTTGCTGCTCATCATGATTTTTTTTTTTTTTTAAGGC [CGGAA] | 0.6269 ± 0.0056 | 0.492 ± 0.038 |
| TTTTTTGCTGCTCATCATGCTTTTTTTTTTTTTTTAAGGA [AGGAA] | 0.779 ± 0.02 | 0.635 ± 0.045 |
| TTTTTTGCTGCTCATGAGCATTTTTTTTTTTTTTTAAGCT [TCGAA] | 0.56 ± 0.028 | 0.402 ± 0.026 |
| TTTTTTGCTGCTCATGATCATTTTTTTTTTTTTTTAAGCG [GCGAA] | 0.632 ± 0.033 | 0.513 ± 0.033 |
| TTTTTTGCTGCTCATGATGATTTTTTTTTTTTTTTAAGCC [CCGAA] | 0.443 ± 0.01 | 0.312 ± 0.023 |
| TTTTTTGCTGCTCATGATGCTTTTTTTTTTTTTTTAAGCA [ACGAA] | 0.571 ± 0.014 | 0.451 ± 0.026 |
| TTTTTTGCTGCTCATGCGCATTTTTTTTTTTTTTTAAGAT [TAGAA] | 0.564 ± 0.024 | 0.496 ± 0.081 |
| TTTTTTGCTGCTCATGCTCATTTTTTTTTTTTTTTAAGAG [GAGAA] | 0.607 ± 0.036 | 0.489 ± 0.086 |
| TTTTTTGCTGCTCATGCTGATTTTTTTTTTTTTTTAAGAC [CAGAA] | 0.485 ± 0.015 | 0.363 ± 0.018 |
